Here are results for 15 sequences from a protein production outcome set (Wang et al. 2014).

The nature of the data set: label from the status in PepcDB records.
For “MKVEEILEKALELVIPDEEEVRKGREAEEELRRRLDELGVEYVFVGSYARNTWLKGSLEIDVFLLFPEEFSKEELRERGLEIGKAVLDSYEIRYAEHPYVHGVVKGVEVDVVPCYKLKEPKNIKSAVDRTPFHHKWLEGRIKGKENEVRLLKGFLKANGIYGAEYKVRGFSGYLCELLIVFYGSFLETVKNARRWTRRTVIDVAKGEVRKGEEFFVVDPVDEKRNVAANLSLDNLARFVHLCREFMEAPSLGFFKPKHPLEIEPERLRKIVEERGTAVFAVKFRKPDIVDDNLYPQLERASRKIFEFLERENFMPLRSAFKASEEFCYLLFECQIKEISRVFRRMGPQFEDERNVKKFLSRNRAFRPFIENGRWWAFEMRKFTTPEEGVRSYASTHWHTLGKNVGESIREYFEIISGEKLFKEPVTAELCEMMGVKD”, the protein production result is “not failed”.
Under “MKVELPQGGYQGLAGDGVVEFRGVPFALPPVGELRFKAPRPLPDSDRSVNADRYPLPSLQVKNPLMGVEDSGEDCLYLNIWVPEGEGPFPVMLWYHGGGYIAGSVSQPLYNGAALAASQKVVVVHAAYRLGAHGFADFATIAPELEADSNLGLRDQVAALEWVNRHIEAFGGRPDRVTLFGESAGGFSVATLMATPRARPLFQAAIVQSGAGDFALAPEEVAKVTSAFVEALPGDGSAADKLRQADPKAWIAAQNQALRTLVKRGLRDTTPQFAMNFQPMVDGDLLPRLPVDAIADGEARDIALMASVCRDEYHFFQYAGPMAGFPSVEELRRFDEAEILRRFQRALPQHGQQALSYYQRTVTPDPQRSNMDWFSAMETDRLFRVPTLRLLDAQAAHRDDTRGLQFTWTSQQFGVPMGACHVIDVPFVFGVTDTPAGMFFTGGGEPARALAAEVQKVWGDFAHGRAVQGPAWKDTRRVRQFGPGDAEAALLDADGEALWADIIPVPGTAKPGQGA” stands “not failed”; under “MKVIETKYNGKLEVAEDRLIAFDQGIPAFEDEKEFVLLPFAAGTPYYTLQSTKTVDLAFIIVNPFSFFPEYRVKLPEATIVQLNITNENDVAIFSLLTVKEPFSETTVNLQAPIVINANKQMGKQLVLGDTAYDRKQPLFQKELVLAKEAK”, “not failed”.
On to “MKVIGINGSSRKDGNTAILIQTVFEELTKEGIETELIQLSGKNIEGCKACWACHKNRNKQCVITDDFFNECFAKMLVSDGIILGSPVYSAGVTSQMKALIDRASMVLAGNRGLFKHKVGASVVAARRGGAISAFGTLNNFLHSKEMFLVGSSYWNMAYGNAIGEVEQDQEGIDNMKNLGQNMAWILKKIHNS”, for which the protein production entry is listed as “failed”.
Under “MKVINVDVAIIGTGTAGMGAYRAAKKHTDKVVLIEGGAYGTTCARVGCMPSKLLIAAADASYHASQTDLFGIQVDRISVNGKAVMKRIQTERDRFVGFVVESVESFDEQDKIRGFAKFLDEHTLQVDDHSQVIAKRIVIATGSRPNYPEFLAAAGSRLLTNDNLFELNDLPKSVAVFGPGVIGLELGQALSRLGVIVKVFGRSGSVANLQDEEMKRYAEKTFNEEFYFDAKARVISTIEKEDAVEVIYFDKSGQKTTESFQYVLAATGRKANVDKLGLENTSIELDKKNSPLFDELTLQTSVDHIFVAGDANNTLTLLHEAADDGKVAGTNAGAYPVIAQGQRRAPLSVVFTEPQVASVGLSLRQIEDLYADQDAANYVVGQVSFEGQGRSRVMGKNKGLLNVYADRTSGEFLGAEMFGPAAEHIGHLLAWARQQQMTVQAMLTMPFYHPVIEEGLRTALRDAQQKLAIEKHDMNEFIMTHDNAMKLVI” stands “not failed”.
With “MKVITSLISSILLKFIHKDFHEIYARMSLLDRFLLLIVHGVDKMVPWHKLPVFLGLTYLEVRRHLHQQYNLLNVGQTPTGIRFDPANYPYRTADGKFNDPFNEGVGSQNSFFGRNCPPVDQKSKLRRPDPMVVATKLLGRKKFIDTGKQFNMIAASWIQFMIHDWIDHLEDTHQIELVAPKEVASKCPLSSFRFLKTKEVPTGFFEIKTGSQNIRTPWWDSSVIYGSNSKTLDRVRTYKDGKLKISEETGLLLHDEDGLAISGDIRNSWAGVSALQALFIKEHNAVCDALKDEDDDLEDEDLYRYARLVTSAVVAKIHTIDWTVQLLKTDTLLAGMRANWYGLLGKKFKDSFGHAGSSILGGVVGMKKPQNHGVPYSLTEDFTSVYRMHSLLPDQLHILDIDDVPGTNKSLPLIQEISMRDLIGRKGEETMSHIGFTKLMVSMGHQASGALELMNYPMWLRDIVPHDPNGQARPDHVDLAALEIYRDRERSVPRYNEFRRSMFMIPITKWEDLTEDEEAIEVLDDVYDGDVEELDLLVGLMAEKKIKGFAISETAFYIFLIMATRRLEADRFFTSDFNETIYTKKGLEWVNTTESLKDVIDRHYPDMTDKWMNSESAFSVWDSPPLTKNPIPLYLRIPS”, the protein production result was “failed”.
Consider “MKVKSISRFFSMKKVTLSFVTLFIGVGTIGSYNQYADASMKTQQTHVTKSSPTQKTTSNFKRSVKDTSVKSRATSIKRATSTKQAISPKTSSTKKTTIAKKSTTVNKTRTTTKTQPTIRKSSTTSTRSKTMPTSVKRTTSHKATTVSPTSKAKISTKTQQSTKSHTTSVKKNTTQLSKTKSPSTSTKSKTVQSSTTKAQPTLSTQVSTTTKAKQFSTPTTSKTDSSKSLVSLASTERKIDKYQSMTQLEKETTEGVDWRKDTKNTGNQVLIVAPHGGSIEQGTTELTKALADKGNYDYYSFEGIRPKNNSELHVTSTHYDDPTLNQMIKNRTATISIHGASGSEEIIYLGGPRSDLRNAIEKQLVARGFTVKVPPEYLGGQNNKNFINREDNNTGVQLELTTALRKAFFKNGDTSTKNRTNKENWTPTMEEFINALYEGINQTYSLEHHHHHH”, for which the protein production entry is given as “failed”.
Take “MKVLETATQVLEWTAHDTQLLVVAALGIALIVVLIAKLKLHPFLALVLGSAFVGLASGVELGKVITNFEDGVGGVLKEVGLLIALGAMLGKLLADSGGANRVVDTLLAKASGNKLVWMITLVAVIIGLPMFFEIGLVLLLPVIVLVTQRSKMKLMRIAIPALAGLSVLHGLVPPHPGPLIAISAVKAELGTTLGLGILVAIPTVIICGPLFSRLAARWVPVDAPAVAGGIDTQHAADLSEVKRQPSFLVTLLTIIFPVVLMLLKALGGIIWPNPETAPAIRIFFDFVGQPLVAMTLAVLLAIVTFGYAVGFTGSRITAKLGESLGPIAAILLIVGAGGGFKQTLIGAGVGDAVKKWAEGANMSVLVLGFIVAVALRLATGSATVATVTAAGIVAPLASSLSPTHAALLALAIGAGSLFLSHVNDAGFWLVKELFGLTVGQTFKTWSVMETLISVVGFGFVMLLSLVL”: the protein production result was “failed”.
With “MKVLKPGLLTTVQDIGRTGYQKYGVLASGAMDTVSLRIANLLIGNGENEAGLEITMMGPGPSFHFSKQTLIAVTGADFTLRINDEEAPLWKPVLIKENSTVSFGPCKLGSRAYLAAAGGIEVPAVMESKSTYVRGSIGGLHGRALQKEDELNIGEMSALSQTILSRLSSQLAHTVIGSTDVVSQPWEISVIEDESRHSSAGGISICLLHSRIKNAFSEEAFRVTPQSDRMGYRLKGEPLDLTAPLEMVSAAVSFGAAQMPPAGKPYYPCLQDRQDDWPAIRGIAHIISADLPIVSQIMPGEHVQFEPVSLQEAEALAVEREQHIKELKTRMKMEWLT”, the protein production entry was “not failed”.
Under “MKVLLANPRGFCAGVDRAIEIVKRTIDMLGTPIYVRHEVVHNRFVVDDLKQRGAIFVEELHQVPDGATVIFSAHGVSQAVRRQAAQRGLKVFDATCPLVTKVHLDVARHCRTGRDMILIGHAGHPEVEGTMGQWDQERGTGRIYLVENIDDVATLHVAQPHHLAYTTQTTLSVDDTRNIIDALRQRFPTIQGPKNNDICYATQNRQDAVRELARECDLVLVVGSPNSSNSNRLSELAQREGVASYLIDSAAEIDPAWVIDKHHIGVTAGASAPQVLVDGVLARLYELGATSVSEHSGKPESMVFALPKALRLQLVD” stands “failed”; under “MKVLLIQPPSSTAFMDKVYMYEPLGLEYLGAGLQEDGHEVLLLDARLEPDFEKAFHSFQPDIVGITGYTNHLNIVKAIAARFKSINPEVFIIVGGHHATVKPADYNDQAIDLIIIGEGVFTLRQVLKHKESLLPFEDIPGLAIPGAVMKFTAERPYTPLDDLPFPDRSLTARYRNHYFSDWMKPIASIRTSLGCFGRCNFCALWSITNGKYLQRNPERIVAELQGIQEEIVFFCDDESMCDTRRMDQLADLIQEAGIRKKYFLYGRVDTIVKHPELFAKWKNIGLIQVFVGFESFSDERLQGLNKNITVAQQEEAVKILNDLNIDIYASFVIDPSFTRQEFTQLIAYTRKLNIAYAALSVLTPLPGTALYEQNKDRLLTHDPKFFDFMHTVLPTALPLKQFYSEYARTLMKATPIPRYFRFIAKFDRQRRLSTMKELYGVVGDVRKGYQWHQAKES”, “failed”; under “MKVNKRVLSIGLAISLIMAGAPNINALSSIEKIQGKDRYETAAKIAQKQTYENVVLVNTDNTLADGLSASGLAGTVKAPILLSQRNSIPSDTEKMLKDVKKVYIIGTEDSIGKSVENELKQKGIEVKRIGGNDRIETSYLIAKEIASIKPIDKVFITNGYTGEADAMSASSVASRDGAPIILTNGKNVPFEKKEGVQCYALGSEEIISNDLVKKTNSVRLAGEDRFETNKKVIKHFYSSAKEFYLSKGYQLVDAVAGSSIAKNAPIVLVDGNSDKSVLRSADKITALGGIDEKTLEQCLSASSLDASAPTITVGNLNIYQGDKFDISKLNIVAKDSNGNDLTPELIGNINTDKVGKYKVTIKATDIGGKTTSISVEVNVLEYKTNDMNSSEFKRMVSSEMYSLVNSYRKEKGKEPLQVSENLQGMANYWSKYMADKGEFAHVINGKNAAEVFSGGIRSEENIAFVPLTTKSTYTTKDAREVANVIFTVWKKSDKYNENMLSSKFAYTGFGLYILPDGQVYATQEFLNK”, “failed”.
Consider “MKVRAIKSFLVTTMAMTFLVSMGQGSILTKANTINNMKYVTEAFGAIPTEEQVSYQKEELTAFIHFGVNTFTGREWGDGTENPEIFNPTNLDADQWVKTLADAGFGRVILTAKHHDGFCLWDSAYTKHDVASSPWKNGKGDVVKEVSEACAKYNIKFGVYLSPWDQNSEHYGEGNGGDYNEFYMNQLRELLTNYGPIAEVWMDGAKGSNVKQEYNFEEWFALIKELQPECLIFSPQGPDIRWIGNEKGYAGEPCWSTIDIEKMKERENPTYLNNGEEGGPDWVVGESDVSIRPGWFYHESQDNEVKSLEKMMDIYFKSIGRNSVLLLNVPPNKEGKLHENDVNRLKEFGETIKELFNDDLALNKEVIVDGFANRDETYGANKIVDGDYDTYWAPDNSSKTGTIEIDLGESKEFDVISLQEYIPLGQRVSSFNVEVLQGENWNKVYEGKTIGYKRLVRIAPTKGEKIRINITGSLEVPLINNVGVYKQPTSIELPSGPPAGLKVLNDDNKGNELEQFNFSDGWVYETIHGENDLGGDAHYTSKTNATVNIKFNGTKFFLSGTKDSGHGIMEISIDGENPVEVDLYSPNRKSKEIVFESEDLSDGEHEVTVKCTGRKNSSSRGTAAHIDGAYVLDNGGKGMVEFEKVGYEVSENIGTATFKVIRKGGSNGKLEVNYDTLAGTALNGVDYQTWSGTLAFNEGETEKTFDITIIDDKEKEEPKEFYLKLSDPIGGILGFNSRATVTINDDEQIK”, for which the protein production entry is “failed”.
Under “MKVTQNENLKLAQRGAFLSLVIYIILSIAKYMTGYVYDSAAVRADALNNMTDILVSVAVIVGLKISIKPADQNHPYGHLKSENISTLLVSFIIMFVGIQVIIENFPRLFTHDSHIPNFITIIISMISGLVMLCVFAINYRLSKRTKSSSLKSAAKDNLSDSLVSIGTAIGLMFTQIGFPIIDIILANILGLLIVYTGFGIFKESIFTLSDGFNEQDLEEYRLDILEVEDVIDVNNIKGRYHGSSIFIDVTIVVDPYLSLYEAHQICDKVEIHLHNKGISSVYVHPEPYTTKDEVK” stands “failed”.
With “MKVTVVSRSGREVLKAPLDLPDSATVADLQEAFHKRAKKFYPSRQRLTLPVTPGSKDKPVVLNSKKSLKEYCDGNNNSLTVVFKDLGAQVSYRTLFFFEYLGPLLIYPVFYYFPVYKFLGYGEDCVIHPVQTYAMYYWCFHYFKRILETFFVHRFSHATSPIGNVFRNCAYYWSFGAYIAYYVNHPLYTPVSDLQMKIGFGFGLVCQVANFYCHILLKNLRDPSGAGGYQIPRGFLFNIVTCANYTTEIYQWLGFNIATQTIAGYVFLAVAALIMTNWALGKHSRLRKIFDGKDGKPKYPRRWVILPPFL”, the protein production result is “failed”.
